# B1: TPR t1 (parent)
# chain: GACCAAUCUGCCCUCAGAGCUCGAGAACAUCUUCGGAUGCAGAGGAGGCAGGCUUCGGUGGCGCGAUAGCGCCAACGUCCUCAACCUCCAAUGCAUCCCACCACAUGAUGAUGCCUGAAGAGCCUUGGUUUUUUG
# Variants of: B1
# Test: polymerase ribozyme fitness, log enrichment relative to wild type (log ratio); higher = more active; in vitro selection for triplet polymerase activity
# Method in brief: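 The heterodimeric triplet polymerase ribozyme's subunits were each mutagenized into PCR-built libraries and transcribed. Every library was selected once, in triplicate, by annealing with a biotinylated primer, the partner subunit and triplets, incubating frozen at −7 °C, gel-excising extended constructs, capturing on streptavidin beads and running RT-PCR. Input and output libraries were Illumina-sequenced, with genotypes kept only at ≥10 input reads and ≥1 read per output. Fitness, from inverse-variance-weighted replicate averages, is the base-2 logarithm of genotype enrichment over wild-type enrichment.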
row,Variant,polymerase ribozyme fitness (log ratio)
1,G69C U106A,-1.14
2,G58C C72G A121U,1.78
3,G36U G71C,-1.92
4,C22G G69U U112A A118U,-0.675
5,G57A U59C G120C U132A,-0.265
6,A5U C72G,-0.174
7,U54C G122A G128U,-3.12
8,A6U A121C,1.91
9,C20A G48U C70A U78G G113A G117C,-7.02
10,G61U U112C,0.845
11,C12A G57U C82G G113A G122A,-2.01
12,C56G U87A G120A,-0.872
13,A16U G93U C123A U133C,-3.02
14,G45A C88A,-0.795
15,U21C G77C,-0.73
16,G10A G48C U54A C94U G110U A121C C123G,-1.01
17,C28A A50C C82U C115A,-4.58
18,G61C G117A,-2.2
19,C114U U125A,-3.07
20,C13G G71U U112C,-0.426
21,A46C G57A C62G A121G,-1.34

row,Variant,polymerase ribozyme fitness (log ratio)
1,G63A U78G U112A,-2.03
2,C72U U87A,-0.188
3,C13U G19U G52U C64U,-3.78
4,C11A G36A G61U G128A,-4.02
5,G71U U81A C123A,-1.04
6,G47A G51A G71U C98U A105U U112G,-7.71
7,G44U A95U G117C,-4.64
8,G36U G60A G113A,-1.62
9,C73U C80A A90U U106A,-5.89
10,U87A C89U G128A,-2.15
11,G39U C49A C72A G93C A95C C115U,-5.1
12,C76U A90G A105U,-1.84
13,G48U G107U A111C C123A,-5.41
14,A46G C53A G135U,-1.55
15,U59A C104U,0.251
16,U9G U92G,-1.92
17,C53A G60C A103C U116C G120C,-7.17
18,G57U C62U U81A,-0.351
19,G45U C85G G122A,-3.83
20,G58A C64U U78C C86U A111C U129C,-1.68
21,U32A C73A C97U,-6.06

row,Variant,polymerase ribozyme fitness (log ratio)
1,U9C A37C C94U G110A,-1.17
2,G44U G60A,-0.946
3,G10A C13G A27U C72U A105U,-3.22
4,G117U G127U,-4.77
5,A6C A50U C76G U96G,-2.15
6,C53U C79G U81C,-1.9
7,A24G U54G G57C C72U C73G C124U,-3.92
8,A50G A74U A91C,-2.03
9,C12G C89A,-1.41
10,U78C G117C,-3.6
11,G36A A46U G47C C56U U106A,-3.75
12,A41C G51U A121G,-3.12
13,C31G C56A G60U U109A,-7.12
14,C22G A27C U59A A95G,-3.9
15,G51A C85U,-3.77
16,U106C U112A,0.973
17,A37U C97U,-2.15
18,C15U G69C C73G C94A A111C,-6.09
19,C8U G61A,0.644
20,C12G C56G C70G,-3.6
21,C15A C72U G93U C114G,-5.25

row,Variant,polymerase ribozyme fitness (log ratio)
1,A18G C88U G113U,-2.52
2,C102A A111C G120C,-3.12
3,U67A,-5.73
4,G36U C40G U78G C97A U112G,-1.61
5,C22G A37U G69U U87G,-2.42
6,C64A C86A U112G,-6.59
7,G35A G47A G57U,-3.97
8,U9G C53A A95C U112G,-0.929
9,G52U U59A G113C A119G,-1.67
10,C62U C64U C123A G128A,-1.1
11,A5U C12U U125A,-0.727
12,A5U G10A G17C,-4.03
13,A27G U106G U112G,-1.51
14,G61C C88U,-1.5
15,A50U G69U U81C C114A,-2.1
16,A95G U116A C124U,-0.576
17,C11G U87G C123G,1.19
18,C49A G57A G110C,-6.31
19,C4U U81A,-1.77
20,A41G G63U,-2.37

# Reference: the RNAGym collection of RNA variant scans (doi:10.1073/pnas.2313332121)
